Source: the DeepSol protein solubility set

Experiment: soluble on expression in E. coli; label from the status in PepcDB or PDB records

| Sequence | soluble on expression in E. coli |
| --- | --- |
| MSEEIISKKPSKPQASRKGKRAWRKNIDIQEIEQNLQDKRDEEIVLGKEVTDDFVIDDTPSSKSGKLPKKLKTKEILTNKSKIPALTNQRHQKKGENTIQGVKKTDLLRLIQLNGGKFKSEDKYVNRLEQDGIVNGSSQDLWDDTDNNEKKKIPDFMKSTAEVTKASVVPKTLKVNPIKITSNELTDKKIHAGKSYNPSLESWKELINQEYDIEYKRELTRQQIEEHRNKIKELMITLDDNMLSDSDDDEDDEDNDKVEEEEQLNANGEKDYSLSINKPNKIKIKTKTKRNKELKHKERVKLEQEIKDLKKQLKDLSNLDEILEKQAVKDQSQPNEKKRKRREKLFKYSLVETPLEVKLSDELSGNLKNLKPEGNLYYDQMLSLQSSGKIESRVPVNKKRKYTKKITEKWTYKDFK | not soluble |
| MSEEVIKFTSPRKQVKEEFKLIDTQKIADVRIQWFGKFTKNREKIMFCWKFFPGDKLQNEGIDFLVGHIKAYPHPTYNDFEPFEFDFNVNGAEHKETREYEYLTKNDWCCATYECELTPFRLYGNMFGASTKHDGVLVVEKKKLNVSKAFLSYHSDFFSDLFSREAHSKDIPIEGVTYFEFGLLISCIHPDHTVFPNDETVSKLLSLADRFSMRAVYRMVEHHLLHSSSNMGIREVIKTADQYGMKELMEKSISRITSTEKVMDLIQSAEFPELSAETKAKLMDCMAKMMR | not soluble |
| MSEFSPLRRKILLGGAATAGLSLFPSFSFASQFAETPRKLALSNLHTGEELKTEYFNGRQYQSAELHKLNHLCRDFRRNESIEMDKRLFDQLSAIQNVIGCDTQVQIISGYRSPATNEMLRGKSHGGVAKKSLHMLGKAMDFRLEGVPLAEVRKAALSLKAGGVGYYPGSNFVHIDTGRVRFW | not soluble |
| MSEISDAEKVRIASDFIKHAPPGEFNEVFNSVRMLLENDDLLKNKCVNAIAQYNVGQFVPVKLDGVAKQTLITPYNDLGNGRFYDEVSKKSFKYDHVRKEAADLQPHPAESGITEQWRQALQTQLDIYIDDHYAKSGTGVVFARNGVFTICIESHQFQPKNFCNGRWRSEWNVPVGDGKSGSQEMKGKILSQVHYYEDGNVQLFSEKEPVLKVNVSADFDKTAKEIIHAISEEETIYQNAVQENYANMSDTTFKALRRQLPVTRAKMDWNKAQTYRIGQEMK | soluble |
| MSEKIRVLLYYKYVSIENAQEYAAKHLEFCKSIGLKGRILIADEGINGTVSGDYETTQKYMDWVHSDERFADLWFKIDEENQQAFRKMFVRYKKEIVHLGLEDNNFDSDINPLETTGEYLNPKQFKEALLDEDTVVLDTRNDYEYDLGHFRGAIRPDIRNFRELPQWVRDNKDKFMEKRVVVYCTGGVRCEKFSGWMVREGFKDVGQLHGGIATYGKDPEVQGELWDGAMYVFDDRISVPINHVNPTVISKDYFDGTPCERYVNCANPFCNKQIFASEENETKYVRGCSPECRAHERNRYVQENGLSRQEWAERLEAIGESLPEFVGALEHHHHHH | soluble |
| MSEKKSELVGRHKRVAYMNTDATGSSPKFERMTNFTTMTNGKNPKEYSRQYVDEIAERADVVGYAPAIEYSFDRYTNNPVHEKIATIHDGEKLGDDAHVEVVVVDFFKKSDKGDKCYATKRTYAVIPDSDGDGTDALVYSGSLKSVSDIEEGYVTETDFTSKTVTYAKGDYAATELEHHHHHH | soluble |
| MSEKPIDKVFNRILVGVDDSADAQLAFRYAVRRAVKDNATLIITSILENDEMNVYQALTKDYVHGERYELVEHLKKYRDIAAKAGVKDIKEIVDEGNAGETIVKNVIPAVKADLLIIGSLSKKGISKYFGSQAAYMAKYAPISVLIIR | not soluble |
| MSEKRLPLKPVLRIDFPPGERLGHGKVELMQLIAETGSISAAGRAMDMSYRRAWLLVDALNHMFRQPVICSQRGGKQGGGAALTVFGAELLERYRGMEERMNEALREDIDWLEANRNPQDALNRDREPPTL | soluble |
| MSEKRLTMKETIRRKALSLGFCAVGFAAADTLNEAMKEYRAMIDEGRHGEMGYLETGLEARANPELLLPGVKSVLSAALPWPAPAKPGAISGYAVIPDYHRVVGELLKELLDFIRSICDHPINGQICVDSSPVLEKEWAEAAGIGRTGKNTLLIVPGYGSRVFLGELLLDLELEPDTPLDWNPCGDCTACLDACPTGALNTPGKLDARRCISYLTIELKRDFTDEEAAMTNGWFYGCDHCLDACPHNANIEATGYPGFEQKKELVNLTPEKALELTHSQFRKRFAGTPALRLGLRRLKRNARAAVANKSQSKS | not soluble |
| MSELLTTYRPIKILLQLDPNLGNNSYNGRVKIDYEFTGETSEIKIQTSRDFQWTSVRLATFYDFNEGCPVYASVDCENYVHDAESEILTLPLGNPLTPETTENGFYIELEWTGPINPQGETTGLYAIDESTIEANMKDGNAHKVFPCYEGGVSAKFWLTVITDERTRVETNMDDAGHEEFEGRVKNNFLKEEELTIEDVYIYVTPIIDME | not soluble |
| MSELRILRAVDYPRMPWKNGAGSTEEIARDGGDGLDGFGWRLSIADVGESGGFSGFAGYQRIISVLEGGGMRLRVDGAESAPLRARQAFAFSGDSEVHCTLLDGAIRDFNLIYAPRRHRARLQWLRVEGELDWHGTASTLLLFAQQDGVAISLQGQPRGQLAAHDCLCAEGLQGLQHWRLTAHEPAWVCAVELDSL | soluble |
| MSEQIRLENLTIFMQRRAVKHVYLRVHPPDGRVTLVAPTGMRLEVVRAFVTAKLDWIHKQQAKLQAQVREVPRQFIGGESHTVWGRHYVLQVVEKSAGPCVLMDQQTITLQVRPGSDLFKRAAVMHAWHKSLLHAVVPDLIGKWQDRLGVSVSAYFLQQMKTRWGSCNTRRRHIRLNTDLVRKPQDLLEYVVVHELVHLIEPSHNKRFVGLMDQHYPAWREATAELNQIPLSAIRPRGLEHHHHHH | not soluble |
| MSEQITFATSDFASNPEPRCPCILLLDVSGSMNGRPINELNAGLVTFRDELLADPLALKRVELGIVTFGPVHVEQPFTSAANFFPPILFAQGDTPMGAAITKALDMVEERKREYRANGISYYRPWIFLITDGAPTDEWQAAANKVFRGEEDKRFAFFSIGVQGADMKTLAQISVRQPLPLQGLQFRELFSWLSSSLRSVSRSTPGTEVVLEAPKGWTSV | soluble |
| MSEQNTAKTLPDRNEIEESSTWRLEDIFQTDTEWEKEFQAIKELLPKLTEFKGKLGDSANNLLEALQYEDEISMRLGKLYTYAHMRYDQDTTNSVYQALNDRATNLYSQVSSSTAYIVPEILSISEDTLQTFLKENRDLSVYEHALEEITRQRPHVLSEAEEALLAEASEVMSTSSNTFGMLNNADLKFPSIKGEDGEEVEITHGRYIQFLESDDRRVREDAFKAVYETYGKYKNTFASTLSGAVKRNNFNARVRKYDSARQAALSNNNIPEAVYDQLIESVNDNLHLLHRYIDIRKRALGLDELHMYDLYTPLVPEVKMNVKYEEAQDMLLKSLHVLGDEYVDILKEAYENRWVDVYENKGKRSGAYSSGAYGTNPYILMNWHDNVNNLFTLAHEFGHSVHSYYTRKTQPHVYGDYSIFVAEVASTCNEALLNDYLLKTTEDKKERLYLLNHYLEGFRGTVFRQTMFAEFEHIIHKKVQEGHAVTPDMLTEIYYDLNKKYFGDALVIDEEIGLEWSRIPHFYYNYYVYQYATGFSAATALSKQILEEGQPAVERYINEFLKAGSSDYPIEVLKKAGVDMASPEPVKEALQVFEEKLNELEALLFEEK | not soluble |
| MSERAPLVIIGTGLAGYNLAREWRKLDGETPLLMITADDGRSYSKPMLSTGFSKNKDADGLAMAEPGAMAEQLNARILTHTRVTGIDPGHQRIWIGEEEVRYRDLVLAWGAEPIRVPVEGDAQDALYPINDLEDYARFRQAAAGKRRVLLLGAGLIGCEFANDLSSGGYQLDVVAPCEQVMPGLLHPAAAKAVQAGLEGLGVRFHLGPVLASLKKAGEGLEAHLSDGEVIPCDLVVSAVGLRPRTELAFAAGLAVNRGIVVDRSLRTSHANIYALGDCAEVDGLNLLYVMPLMACARALAQTLAGNPSQVAYGPMPVTVKTPACPLVVSPPPRGMDGQWLVEGSGTDLKVLCRDTAGRVIGYALTGAAVNEKLALNKELPGLMA | soluble |
